Experimental data reported in patent US10428093B2, “Lipid co-factor essential for cell density signaling” (priority 2013, dated 2019).

Test system: U2OS cells
Experiment: Growth of U2OS cells after adding concentrated conditioned media or free protein factor
Type: cell-based, human
Conditions: free factor expressed in E. coli added at 5 μg/ml, after a week (6 days), vs control
Experimental: FIGS. 13A-F—The cofactor has a unique lipid makeup depending on the producing cell type but would SNZR 1P1L and SNZR 1P2L give the same or different response if added to the same cell type. In this case we used the control cell line U2OS and added a 5× concentrated condition medium from PAT cells or from U2OS-pESY1c cells. An additional test was done to see if the free factor made in E. coli had any activity on U2OS cells if applied at a high concentration (5 μg/ml).
To answer these questions, U2OS cells were grown in regular media as a control, or with 5× concentrated condition media from U2OS-pESY1c cells expressing the SNZR 1P1L, and from 5× concentrated condition media from PAT cells expressing SNZR 1P2L. In addition, SNZR 1P purified from E. coli, was added at 5 μg/ml—3 orders of magnitude greater than the estimated level in CM (FIG. 13a,b,c,d). […] The high level of the protein factor was chosen because it seemed unlikely that the factor without the cofactor would have a lot of activity and small amounts of activity are difficult to detect by visualization.
U2OS cells were grown in F12/DMEM medium with 0.2% fetal bovine serum. In 75 cm^2 flasks the medium, […], was changed every other day. When the cells first overgrow the monolayer, they are very sensitive to medium volume and will apoptose if too much medium is added.
CM was produced by growing cells in 225 cm^2 flasks. […]

B1: SNZR 1P: secreted 94 AA cell density signal protein factor (chicken, SEQ ID NO:3; tagged form SEQ ID NO:13) (protein, listed as Gallus gallus)
chain: EPLAVVDLRPQSSVKVEVHFQDKVEEMSIRLDQTVAELKKHLKTVVQLSTSNMLLFYLDQEAPFGPEEMKYSSRALHSYGIRDGDKIYVEPRMK
  Effect on growth of U2OS cells: did not appear to change the cultures
Listed as secreted form of the factor
  Effect on growth of U2OS cells: did not appear to increase growth
